Publication PMC11187563, “The importance of tyrosines in multimers of cyclic RGD nonapeptides: towards αvβ6-integrin targeted radiotherapeutics” (RSC Medicinal Chemistry, 2024)
Read-outs that look alike come from different tables or passages of the source.

Experiments:
[1] = system: αvβ6-integrin expressing human lung adenocarcinoma cell line H2009 xenografts; test: Ex vivo biodistribution of 177Lu-labeled peptide tetramers in H2009 xenografted SCID mice; conditions: H2009 bearing SCID mice
Experimental: (§1) The biodistribution of the ^177Lu-labeled peptide conjugates was investigated in severe combined immunodeficiency (SCID) mice bearing subcutaneous xenografts of the αvβ6-integrin expressing human lung adenocarcinoma cell line H2009 on their right shoulders. Two representative time points after i.v. administration (p.i.) were evaluated.
(§2) Analytical HPLC was performed on a Shimadzu (Kyoto, Japan) Prominence HPLC system equipped with either a Dr. Maisch ReproSil Pur C18 AQ 150 × 4.6 mm, 5 μm, 120 Å (AC1) or a Phenomenex Kinetex C18 150 × 4.6 mm 5 μm column (AC2). Semipreparative HPLC was performed on a Shimadzu HPLC system equipped with either a Dr. Maisch ReproSil Pur C18 AQ 250 × 10 mm, 5 μm, 120 Å column with 5 mL min^−1 flow (PC1) or a Dr. Maisch ReproSil Pur C18 150 × 30 mm, 5 μm, 120 Å column with 20 mL min^−1 flow (PC2). Solvents for both systems were water (A) and acetonitrile (B) each supplemented with 0.1% (vol) trifluoroacetic acid (TFA). ESI-MS spectra (positive mode) were recorded on a Shimadzu LC-MS 2020 single quadrupol mass spectrometer. Solvents for MS applications were water (A) and acetonitrile (B) each supplemented with 0.1% (vol) formic acid. The other experimental procedures (determination of log D7.4, cultivation of H2009 human lung adenocarcinoma cells, generation of tumor xenografts in CB17 SCID mice, and biodistribution) were performed as described before.[28] All animal experiments have been carried out according to applicable law and institutional guidelines of Technical University of Munich, and were approved by the responsible local authority (Regierung von Oberbayern). The H2009 cells were regularly authenticated and tested for mycoplasma contamination. DOTPI-tetraazide,[43]FF (previously termed AvB6),[29]FY,[34] and YY (also referred to as Tyr2-alkyne)[36] were synthesized as described previously.

[2] = as above; conditions: CB17 SCID, mouse, iv, total radioactivity, H2009 bearing SCID mice; for tissue uptake at 72 h / tissue to tissue ratio at 72 h: 70 pmol, 3 d p.i.; for tissue uptake at 1.5 h / tissue to tissue ratio at 1.5 h: 118 pmol, 90 min p.i.
Experimental: as §1, §2

[3] = H2009 tumor, read-out: Tumor H2009 %IA/g
[4] = adrenals, read-out: Adrenals %IA/g
[5] = heart (myocard), read-out: Heart (myocard) %IA/g
[6] = kidneys, read-out: Kidneys %IA/g
[7] = large intestine (empty), read-out: Large intestine (empty) %IA/g
[8] = pancreas, read-out: Pancreas %IA/g
[9] = small intestine (empty), read-out: Small intestine (empty) %IA/g
[10] = stomach (empty), read-out: Stomach (empty) %IA/g
[11] = tumor/blood, read-out: tumor/organ ratio, Blood
[12] = tumor/heart (myocard), read-out: tumor/organ ratio, Heart (myocard)
[13] = tumor/liver, read-out: tumor/organ ratio, Liver
[14] = tumor/lung, read-out: tumor/organ ratio, Lung
[15] = tumor/pancreas, read-out: tumor/organ ratio, Pancreas
[16] = tumor/spleen, read-out: tumor/organ ratio, Spleen

CC(C)C[C@@H]1NC(=O)[C@H](CC(=O)O)NC(=O)CNC(=O)[C@H](CCCNC(=N)N)NC(=O)[C@H](Cc2ccccc2)NC(=O)[C@H](CCCCNC(=O)CCC(=O)NCCCC[C@H](NC(=O)[C@H](Cc2ccccc2)NC(=O)CNC(=O)CCc2cn(CCCNC(=O)CCP(=O)(O)CN3CCN(CP(=O)(O)CCC(=O)NCCCn4cc(CCC(=O)NCC(=O)N[C@@H](Cc5ccccc5)C(=O)N[C@@H](CCCCNC(=O)CCC(=O)NCCCC[C@H]5C(=O)N[C@@H](Cc6ccccc6)C(=O)N[C@@H](CCCNC(=N)N)C(=O)NCC(=O)N[C@@H](CC(=O)O)C(=O)N[C@@H](CC(C)C)C(=O)N[C@@H](C)C(=O)N[C@@H](Cc6ccc(O)cc6)C(=O)N6CCC[C@@H]6C(=O)N5C)C(=O)O)nn4)CCN(CP(=O)(O)CCC(=O)NCCCn4cc(CCC(=O)NCC(=O)N[C@@H](Cc5ccccc5)C(=O)N[C@@H](CCCCNC(=O)CCC(=O)NCCCC[C@H]5C(=O)N[C@@H](Cc6ccccc6)C(=O)N[C@@H](CCCNC(=N)N)C(=O)NCC(=O)N[C@@H](CC(=O)O)C(=O)N[C@@H](CC(C)C)C(=O)N[C@@H](C)C(=O)N[C@@H](Cc6ccc(O)cc6)C(=O)N6CCC[C@@H]6C(=O)N5C)C(=O)O)nn4)CCN(CP(=O)(O)CCC(=O)NCCCn4cc(CCC(=O)NCC(=O)N[C@@H](Cc5ccccc5)C(=O)N[C@@H](CCCCNC(=O)CCC(=O)NCCCC[C@H]5C(=O)N[C@@H](Cc6ccccc6)C(=O)N[C@@H](CCCNC(=N)N)C(=O)NCC(=O)N[C@@H](CC(=O)O)C(=O)N[C@@H](CC(C)C)C(=O)N[C@@H](C)C(=O)N[C@@H](Cc6ccc(O)cc6)C(=O)N6CCC[C@@H]6C(=O)N5C)C(=O)O)nn4)CC3)nn2)C(=O)O)N(C)C(=O)[C@H]2CCCN2C(=O)[C@H](Cc2ccc(O)cc2)NC(=O)[C@H](C)NC1=O [Compound 177Lu-GFK-Y4, metal not drawn]
tumor/organ ratio, Kidneys ([1]; 90 min p.i.): 0.0 | tumor/organ ratio, Kidneys ([1]; 3 d p.i.): 0.0 | tissue uptake at 72 h [2, 3]: 0.77 %ID/g | tissue uptake at 1.5 h [2, 3]: 1.74 %ID/g | tissue uptake at 72 h [2, 4]: 0.25 %ID/g | tissue uptake at 1.5 h [2, 4]: 0.95 %ID/g | tissue uptake at 72 h ([2]; blood, read-out: Blood %IA/g): 0.02 %ID/g | tissue uptake at 1.5 h ([2]; blood, read-out: Blood %IA/g): 0.44 %ID/g | tissue uptake at 72 h ([2]; bone, read-out: Bone %IA/g): 0.25 %ID/g | tissue uptake at 1.5 h ([2]; bone, read-out: Bone %IA/g): 0.49 %ID/g | tissue uptake at 72 h [2, 5]: 0.12 %ID/g | tissue uptake at 1.5 h [2, 5]: 0.32 %ID/g | tissue uptake at 72 h [2, 6]: 169 %ID/g | tissue uptake at 1.5 h [2, 6]: 274 %ID/g | tissue uptake at 72 h [2, 7]: 0.78 %ID/g | tissue uptake at 1.5 h [2, 7]: 1.76 %ID/g | tissue uptake at 72 h ([2]; liver, read-out: Liver %IA/g): 0.48 %ID/g | tissue uptake at 1.5 h ([2]; liver, read-out: Liver %IA/g): 1.16 %ID/g | tissue uptake at 72 h ([2]; lung, read-out: Lung %IA/g): 0.5 %ID/g | tissue uptake at 1.5 h ([2]; lung, read-out: Lung %IA/g): 2.88 %ID/g | tissue uptake at 72 h ([2]; muscle, read-out: Muscle %IA/g): 0.13 %ID/g | tissue uptake at 1.5 h ([2]; muscle, read-out: Muscle %IA/g): 0.26 %ID/g | tissue uptake at 72 h [2, 8]: 0.08 %ID/g | tissue uptake at 1.5 h [2, 8]: 0.14 %ID/g | tissue uptake at 72 h [2, 9]: 0.15 %ID/g | tissue uptake at 1.5 h [2, 9]: 0.73 %ID/g | tissue uptake at 72 h ([2]; spleen, read-out: Spleen %IA/g): 0.86 %ID/g | tissue uptake at 1.5 h ([2]; spleen, read-out: Spleen %IA/g): 0.89 %ID/g | tissue uptake at 72 h [2, 10]: 2.42 %ID/g | tissue uptake at 1.5 h [2, 10]: 3.29 %ID/g | tissue to tissue ratio at 72 h ([2]; tumor / adrenals, read-out: tumor/organ ratio, Adrenals): 3.7 | tissue to tissue ratio at 72 h ([2]; tumor / bone, read-out: tumor/organ ratio, Bone): 3.2 | tissue to tissue ratio at 72 h ([2]; tumor / large intestine (empty), read-out: tumor/organ ratio, Large intestine (empty)): 1.4 | tissue to tissue ratio at 72 h ([2]; tumor / muscle, read-out: tumor/organ ratio, Muscle): 6.9 | tissue to tissue ratio at 72 h ([2]; tumor / small intestine (empty), read-out: tumor/organ ratio, Small intestine (empty)): 5.6 | tissue to tissue ratio at 72 h ([2]; tumor / stomach (empty), read-out: tumor/organ ratio, Stomach (empty)): 0.4 | tissue to tissue ratio at 1.5 h ([2]; tumor/adrenals, read-out: tumor/organ ratio, Adrenals): 2.2 | tissue to tissue ratio at 72 h [2, 11]: 56.1 | tissue to tissue ratio at 1.5 h [2, 11]: 4.3 | tissue to tissue ratio at 1.5 h ([2]; tumor/bone, read-out: tumor/organ ratio, Bone): 3.6 | tissue to tissue ratio at 72 h [2, 12]: 6.9 | tissue to tissue ratio at 1.5 h [2, 12]: 5.5 | tissue to tissue ratio at 1.5 h ([2]; tumor/large intestine (empty), read-out: tumor/organ ratio, Large intestine (empty)): 1.1 | tissue to tissue ratio at 72 h [2, 13]: 2 | tissue to tissue ratio at 1.5 h [2, 13]: 1.7 | tissue to tissue ratio at 72 h [2, 14]: 1.8 | tissue to tissue ratio at 1.5 h [2, 14]: 0.6 | tissue to tissue ratio at 1.5 h ([2]; tumor/muscle, read-out: tumor/organ ratio, Muscle): 7.2 | tissue to tissue ratio at 72 h [2, 15]: 9.9 | tissue to tissue ratio at 1.5 h [2, 15]: 12.2 | tissue to tissue ratio at 1.5 h ([2]; tumor/small intestine (empty), read-out: tumor/organ ratio, Small intestine (empty)): 2.5 | tissue to tissue ratio at 72 h [2, 16]: 1 | tissue to tissue ratio at 1.5 h [2, 16]: 2.1 | tissue to tissue ratio at 1.5 h ([2]; tumor/stomach (empty), read-out: tumor/organ ratio, Stomach (empty)): 0.6
